# Results published in US10328148B2, “Protein drug formulations and packages” (Purdue Research Foundation, priority 2010, dated 2019).
# B1: Protein G: free Protein G, immunoglobulin-binding protein used as polyamino acid ligand (protein)
# chain: TYKLILNGKTLKGETTTEAVDAATAEKVFKQYANDNGVDGEWTYDDATKTFTVTEKPEVIDASELTPAVTTYKLVINGKTLKGETTTEAVDAATAEKVFKQYANDNGVDGEWTYDDATKTFTVTEKPEVIDASELTPAVTTYKLVINGKTLKGETTTKAVDAETAEKAFKQYANDNGVDGVWTYDDATKTFTVTE
# System: IgG
# Experiment: HP-SEC of IgG with free Protein A or Protein G: complex formation and agitation-induced aggregation
# Type: physicochemical
# Settings: IgG:Protein A or G ratio 1:4, RT 2 h
# Experimental: Effect of proteins A and G on aggregation of IgG. High performance size exclusion chromatography (HP-SEC) is used to verify that IgG binds with Protein A or Protein G completely. 50 µL aliquots are injected to a Tosoh TSK G 13000 SWXL Gel 3000 column ([…]×7.8 mm) and separated at a flow rate of 0.5 mL/min. The mobile phase contains 50 mM potassium phosphate and 100 mM K2SO4 at pH 7.1. The relative percentage of IgG monomer and dimer are calculated in triplicate as a percentage of the total chromatographic peak area at 280 nm. Fresh IgG is incubated with free Protein A or free Protein G, respectively, at IgG:Protein A or G ratio of 1:4 at RT for 2 h before being subjected to agitation. […] Effect of agitation of protein A and protein G complexes of IgG. The prior Example 1 is repeated, subjecting the IgG+Protein A or IgG+Protein G to agitation on a shaker at room temperature for 44 h.
molecule,measurement,value
B1,Complex formation with IgG by HP-SEC,formation of IgG-Protein A and IgG-Protein G complexes
